Results from the RNAGym collection of RNA variant scans (doi:10.7554/elife.80360).

B1: HDV Ribozyme (parent)
chain: GGCCGGCAUGGUCCCAGCCUCCUCGCUGGCGCCGGCUGGGCAACAUUCCGAGGGGACCGUCCCCUCGGUAAUGGCGAAUGGGACCCA

Variants of: B1
Assay: self-cleavage, relative activity (ratio to wild type); higher = more cleavage; co-transcriptional

Variant | self-cleavage
C4U G34A | 0.772
U37G G40U | 0.203
C14U C26A | 1.08
C18A G68U | 0.147
U46G C75G | 0.0639
U20A A71G | 0.0665
G76C C86U | 0.886
C22A A42G | 0
G25C C84U | 0.0314
C15U C75U | 0.227
U37A A51G | 0.302
U9C C66U | 0.919
G35A C66U | 0.655
G54A C63A | 0.831
A51G G55C | 0.481
U9G A71U | 1.13
U37G C84G | 0
C33U G40U | 0.78
C19A G52C | 0.125
A43G A87C | 0.688
C21U U60G | 0.122
C4G U47G | 0.175
C3A C58U | 0.596
C57G A78C | 0.0959

Variant | self-cleavage
G53U G82C | 0.381
C33G U72G | 0
A43G U72A | 0.453
A42G A77U | 0
G31A C58A | 0.574
C33A A87U | 0.226
A45G U69G | 1.21
C14A G34A | 0.185
C33A A42U | 0.0314
G38C C57U | 0.282
C19A C84A | 0.0519
A51G U65C | 1.26
G2C A83G | 0.132
C57A | 1.05
C21G U72C | 0.0426
G2U C44A | 0.0583
U60G C61G | 0.872
G76U G81A | 0.506
A8C A77C | 0.317
G35A C86A | 0.643
C21A A87U | 0.0915
G35C C41G | 0.161
A70G A83C | 0.344
U20C C26G | 0.0923

Variant | self-cleavage
U9A G34C | 0.375
C66U A77U | 0.501
C7G C62G | 0.111
A8U C85U | 1.09
G34U C36G | 0.0302
G25U C66U | 0.151
U9C G10C | 0.767
C26U | 1.02
C57A C66G | 0.985
G25C C48G | 0.133
C18U C62U | 0.831
G5C C24A | 0.0811
C58A U69C | 1.17
C21U A71G | 0.243
C14G C66G | 0.391
C3G G55A | 0.76
U47A G53A | 1.22
G28C C58G | 0.0475
C44A G67U | 0.658
G6A G54U | 0.819
G11C U72G | 0
C24G C84A | 0.123
U20G A70G | 0.312
C61G A78G | 0.831

Variant | self-cleavage
C22A C75G | 0.0604
C36A G50C | 0.113
G31C C75G | 0.0396
C32U C48G | 1.04
C64A U79A | 0.796
C14G U23A | 0.68
C57U C66G | 1.07
C32U G52U | 0.963
G31A A45G | 0.422
G35C A51C | 0.297
C18U G80C | 0.102
C58U U69C | 0.95
G54C A56G | 0.808
U9C C84G | 0.489
C36U C48G | 0.831
G53A C63U | 0.812
C62G G82C | 0.204
A56G U72C | 0.782
C48A A87U | 1.03
G34C G76A | 0.163
G17A C22A | 0.128
U20A C58U | 0.158
C36A C48G | 0.203
C48U C75A | 0.199

Variant | self-cleavage
G40U A43G | 0.54
C22A C66G | 0.373
C7U G59A | 0.8
G81A C84G | 0.237
U12C G17U | 0.308
C4A C62G | 0
C32G G34A | 0.0875
A83U C84G | 0.332
G73A A87C | 0.643
U23G G82A | 0.0449
G50U A77C | 0.499
G5U A87C | 0.277
C44G C49G | 0.68
C49G C75U | 0.201
U12G G55A | 0.703
C14G G28U | 0.107
U46C C85A | 0.617
G38U A51U | 0.308
C19G C85A | 0.148
C7A C66U | 0.587
U60A C63G | 0.851
C44A C86U | 1.01
G40C A78G | 0.318
A8C U23A | 0.615

Variant | self-cleavage
C66A A77C | 0.237
U23G G29A | 0
C62A A71U | 0.892
G40U A77U | 0.212
G29C G59A | 0.0332
G5U G73A | 0.0665
C33G A51C | 0.246
G35A U72C | 0.283
G10A A70G | 0.801
C30A G39U | 0.185
G28C U69C | 0.101
U37C C44U | 0.529
G17A G28C | 0.0489
C21G C75U | 0.0378
C49U C62A | 0.652
G25C G53U | 0.193
C33G G80U | 0.0528
U12A A78U | 0.128
G6C G53C | 0.32
G2U G55U | 0.0654
C24A G54A | 0.774
C24U G38A | 0.0863
U27C U72A | 0.396
G1C U23G | 0.227

Variant | self-cleavage
G40C A56C | 0.197
C4G C75A | 0.0692
G35C A56U | 0.232
C22U C64G | 0.751
U12A C19A | 0.0287
U20A U46A | 0.0594
U47A C86A | 1.04
A45G C62A | 0.975
C14G C32G | 0
U37G U46C | 0.128
G59A G76A | 1.07
G34C G35C | 0.246
C57G C84G | 0.831
C62U G82C | 0.242
C3U U9A | 0.904
U47A U72G | 0.665
C32G G34U | 0.0415
A16U A43U | 0.443
C7U G38A | 0.0496
C19A C36G | 0.0923
A71G U72C | 0.705
G2U C58U | 0.109
G39A C75U | 0.178
